Assays:
[1] = biological target: SSB_(HK620), wild-type HkaK protein from phage HK620 (phage HK620) (UniProt Q9AZ30)
[2] = biological target: T1, Sak4 (HkaL) of phage HK620 (Enterobacteria phage HK620, UniProt Q9AZ29); experiment: gel shift of Cy5-labelled 81-mer ssDNA and single-strand annealing assay, with or without ATP; conditions: 1 mM ATP, 5 mM MgCl2, about 150-169 mM NaCl, pH 7.5, 30 °C; ATP needed for ssDNA binding and annealing; functional evidence, nucleotide binding not measured directly
T1 construct: untagged full-length Sak4 from plasmid pSMG288, expressed in E. coli ER2566; monomer in solution
T1 sequence (Q9AZ29 1-226): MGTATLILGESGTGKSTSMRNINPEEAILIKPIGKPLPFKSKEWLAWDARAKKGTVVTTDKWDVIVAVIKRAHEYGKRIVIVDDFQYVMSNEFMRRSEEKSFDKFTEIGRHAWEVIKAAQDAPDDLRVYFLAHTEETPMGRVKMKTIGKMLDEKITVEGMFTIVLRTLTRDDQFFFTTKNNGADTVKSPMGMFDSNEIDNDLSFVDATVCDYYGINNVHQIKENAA

[3] = biological target: the molecule itself; experiment: SEC; Superdex 200 10/300 GL; proteins alone or together in 1 mL of 50 mM Tris-HCl pH 8, 1 mM DTT, 5% glycerol, 150 mM NaCl, 20 min at 30°C before injection; fractions analysed by SDS-PAGE; no ssDNA, no ATP
[4] = biological target: T2, Sak4 (HkaL);SSB HK620 (HkaK) (Enterobacteria phage …, UniProt Q9AZ29;Q9AZ30 1-226;1-195, |); experiment: EMSA; Sak4 titrated on GO47 precoated with 5.1 uM SSB HK620; 1 mM ATP; value is Sak4 concentration; EMSA: 13 mM Tris-HCl pH 7.5, 5 mM MgCl2, 169 mM NaCl, 0.1 mg/mL BSA, 1 mM DTT, +/- 1 mM ATP, 10 nM DNA, 15 min at 30 C; 5% native PAGE in 1X TAE; conditions: protein: recombinant;recombinant; tags: none stated;untagged; copies: 1;4; label: 5'-Cy5; single strand
T2 sequence 1: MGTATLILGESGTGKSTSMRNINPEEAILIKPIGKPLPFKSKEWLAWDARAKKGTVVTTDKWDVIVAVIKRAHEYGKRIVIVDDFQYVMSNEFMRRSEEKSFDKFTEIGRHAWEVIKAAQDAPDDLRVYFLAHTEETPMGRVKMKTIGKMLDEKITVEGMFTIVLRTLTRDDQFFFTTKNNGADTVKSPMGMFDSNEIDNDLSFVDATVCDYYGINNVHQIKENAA
T2 sequence 2: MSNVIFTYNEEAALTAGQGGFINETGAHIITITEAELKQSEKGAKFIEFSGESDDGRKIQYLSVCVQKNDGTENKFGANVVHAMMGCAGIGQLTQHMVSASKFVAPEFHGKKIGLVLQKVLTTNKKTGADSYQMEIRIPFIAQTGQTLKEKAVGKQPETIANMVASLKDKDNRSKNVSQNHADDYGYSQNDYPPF

SSB HK620 (HkaK) = biological target: T3, SSB HK620 (HkaK) (Enterobacteria phage HK620, UniProt Q9AZ30 1-195); experiment: EMSA; 5 mM Mg2+, 1 mM ATP; EMSA: 13 mM Tris-HCl pH 7.5, 5 mM MgCl2, 169 mM NaCl, 0.1 mg/mL BSA, 1 mM DTT, +/- 1 mM ATP, 10 nM DNA, 15 min at 30 C; 5% native PAGE in 1X TAE; conditions: protein: recombinant; tags: untagged; chain copies: 4; label: 5'-Cy5; single strand
T3 sequence: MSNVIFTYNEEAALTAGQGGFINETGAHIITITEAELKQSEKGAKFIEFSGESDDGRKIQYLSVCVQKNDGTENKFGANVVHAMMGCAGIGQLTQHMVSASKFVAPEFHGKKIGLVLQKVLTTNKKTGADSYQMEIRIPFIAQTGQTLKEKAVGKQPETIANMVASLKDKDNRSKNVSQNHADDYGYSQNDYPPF

SSB Ecoli = SSB Ecoli (Escherichia coli, UniProt P0AGE0 2-178); experiment: as above; conditions: protein: commercial; chain copies: 4; label: 5'-Cy5; single strand
Chain of SSB Ecoli (P0AGE0 2-178): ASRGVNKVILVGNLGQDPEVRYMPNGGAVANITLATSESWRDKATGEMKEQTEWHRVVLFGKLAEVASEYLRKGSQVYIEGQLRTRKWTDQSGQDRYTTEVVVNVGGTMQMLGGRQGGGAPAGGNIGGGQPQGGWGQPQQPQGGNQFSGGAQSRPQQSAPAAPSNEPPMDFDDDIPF

Sak4 (HkaL) [5] = biological target: T4, Sak4 (HkaL) (Enterobacteria phage HK620, UniProt Q9AZ29 1-226); experiment: EMSA; 1 mM ATP, 5 mM Mg2+; EMSA: 13 mM Tris-HCl pH 7.5, 5 mM MgCl2, 169 mM NaCl, 0.1 mg/mL BSA, 1 mM DTT, +/- 1 mM ATP, 10 nM DNA, 15 min at 30 C; 5% native PAGE in 1X TAE; conditions: protein: recombinant; tags: none stated; label: 5'-Cy5; single strand
T4 sequence: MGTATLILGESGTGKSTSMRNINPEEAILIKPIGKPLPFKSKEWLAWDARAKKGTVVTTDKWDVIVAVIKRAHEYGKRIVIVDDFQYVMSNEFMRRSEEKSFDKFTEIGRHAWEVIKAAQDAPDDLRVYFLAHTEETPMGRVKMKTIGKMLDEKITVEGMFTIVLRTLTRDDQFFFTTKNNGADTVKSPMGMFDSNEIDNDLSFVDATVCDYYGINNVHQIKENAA

Sak4 (HkaL) [6] = biological target: T4, Sak4 (HkaL); experiment: EMSA; 3.7 uM Sak4, 1 mM ATP; EMSA: 13 mM Tris-HCl pH 7.5, 5 mM MgCl2, 169 mM NaCl, 0.1 mg/mL BSA, 1 mM DTT, +/- 1 mM ATP, 10 nM DNA, 15 min at 30 C; 5% native PAGE in 1X TAE; conditions: protein: recombinant; tags: none stated; label: 5'-Cy5 on GO47; blunt

## Sak4 protein of phage HK620 (natural protein)
[1]
  single-strand annealing of GO47 and GO34 (10 nM each) by 0.5 µM Sak4 with SSB (HK620) at concentrations above 640 nM, 1 mM ATP (spontaneous annealing 11.8%): > 65%

## Nc1ncnc2c1ncn2[C@@H]1O[C@H](COP(=O)(O)OP(=O)(O)OP(=O)(O)O)[C@@H](O)[C@H]1O [ATP]
[2]
  gel shift of Cy5-labelled 81-mer ssDNA and single-strand annealing assay, with o: Sak4 shifted the ssDNA only if ATP was added in the reaction buffer

B1: SSB_(HK620), wild-type HkaK protein from phage HK620 (natural protein, UniProt Q9AZ30 1-195, looked up)
chain: MSNVIFTYNEEAALTAGQGGFINETGAHIITITEAELKQSEKGAKFIEFSGESDDGRKIQYLSVCVQKNDGTENKFGANVVHAMMGCAGIGQLTQHMVSASKFVAPEFHGKKIGLVLQKVLTTNKKTGADSYQMEIRIPFIAQTGQTLKEKAVGKQPETIANMVASLKDKDNRSKNVSQNHADDYGYSQNDYPPF
notes: HkaK (first annotated Abc1) of phage HK620, a distant SSB homolog (Pfam DUF669); produced untagged; monomer 21.3 kDa; Untagged; also called Abc1_(HK620); HkaK/Abc1_(HK620); source: E. coli ER2566 with pSMG279, purified (PEI, ammonium sulfate, HiTrap Heparin)
[3]
  stoichiometry N: 4

B2: GO47 (ssDNA)
DNA: ACCTGAATCGCCAGCGGCATCAGCACCTTGTCGCCTTACGTATACTATTTGCCCATGGTGAAAACGGGGGCGAAGAAGTTG
[4]
  apparent K (half saturation): < 500 nM
SSB HK620 (HkaK)
  apparent K (half saturation): 226 nM
SSB Ecoli
  apparent K (half saturation): ~40 nM
Sak4 (HkaL) [5]
  apparent K (half saturation): ~1850 nM

B3: GO47/GO34 duplex (dsDNA)
DNA 1: ACCTGAATCGCCAGCGGCATCAGCACCTTGTCGCCTTACGTATACTATTTGCCCATGGTGAAAACGGGGGCGAAGAAGTTG
DNA 2: CAACTTCTTCGCCCCCGTTTTCACCATGGGCAAATAGTATACGTAAGGCGACAAGGTGCTGATGCCGCTGGCGATTCAGGT
Sak4 (HkaL) [6]
  binding result: no binding
